{"source": "paper PMC10371251", "tested_on": "FLAG-cGAS (Homo sapiens)", "test": "pull-down (streptavidin, Western blot; ligand transfected into HEK293T 2 h)", "settings": "5' or 3' position of biotin not stated, forward strand biotinylated, reverse unmodified, HEK293T transfected with 4 ug/mL biotin-ISD45 for 2 h, then streptavidin IP, IP buffer, pH and temperature not in the material (oligo annealing: 5 mM Tris pH 7.)", "data": [{"substance": "biotinylated ISD45", "values": [{"measurement": "binding signal (fold of empty vector)", "setting": "WT SRC-HA coexpressed", "value": 0.466}, {"measurement": "binding signal (fold of empty vector)", "setting": "empty vector, no SRC-HA, non-biotinylated ISD45 background 0.1436", "value": 1}]}]}
